Substitutions are numbered along the chain they refer to.
T1: human soluble IL-6R, recombinant (human, UniProt P08887 20-358)
T1 construct: also called human IL6-R; bio-IL-6R
T1 sequence (looked up): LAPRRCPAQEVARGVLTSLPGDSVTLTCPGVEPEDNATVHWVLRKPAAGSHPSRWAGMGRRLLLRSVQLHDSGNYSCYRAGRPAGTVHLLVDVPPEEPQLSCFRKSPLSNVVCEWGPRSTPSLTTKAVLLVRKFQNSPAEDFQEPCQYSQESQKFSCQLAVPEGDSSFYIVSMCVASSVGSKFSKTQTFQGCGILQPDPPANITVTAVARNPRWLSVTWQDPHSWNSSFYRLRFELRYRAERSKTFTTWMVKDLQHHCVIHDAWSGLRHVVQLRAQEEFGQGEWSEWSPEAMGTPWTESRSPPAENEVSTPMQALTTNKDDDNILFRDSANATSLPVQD

T2: cyno IL-6R on CHO-K1 cells, clone CyIL6R 405 (cynomolgus monkey (extracellular domain), UniProt A0A2K5WN54 60-499)
T2 construct: whole, on cells; chimeric construct on cells; also called CHO K1-cynomolgous IL-6R
T2 sequence: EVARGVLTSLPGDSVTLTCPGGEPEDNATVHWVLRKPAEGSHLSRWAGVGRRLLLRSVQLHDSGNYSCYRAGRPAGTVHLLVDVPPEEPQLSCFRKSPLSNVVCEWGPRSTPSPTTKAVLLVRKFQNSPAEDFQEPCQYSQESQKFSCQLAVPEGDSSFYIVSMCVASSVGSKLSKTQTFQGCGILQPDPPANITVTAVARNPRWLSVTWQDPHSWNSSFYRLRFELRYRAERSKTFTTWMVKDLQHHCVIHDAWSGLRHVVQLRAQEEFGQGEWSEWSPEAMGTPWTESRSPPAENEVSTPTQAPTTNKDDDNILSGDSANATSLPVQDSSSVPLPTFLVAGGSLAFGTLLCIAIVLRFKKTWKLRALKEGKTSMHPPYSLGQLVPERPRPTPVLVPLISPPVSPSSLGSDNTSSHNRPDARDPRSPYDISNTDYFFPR

T3: hybrid IL-6R (human, with rat sequence in domain I)
T3 construct: produced in HEK.EBNA cells and purified
T3 chain: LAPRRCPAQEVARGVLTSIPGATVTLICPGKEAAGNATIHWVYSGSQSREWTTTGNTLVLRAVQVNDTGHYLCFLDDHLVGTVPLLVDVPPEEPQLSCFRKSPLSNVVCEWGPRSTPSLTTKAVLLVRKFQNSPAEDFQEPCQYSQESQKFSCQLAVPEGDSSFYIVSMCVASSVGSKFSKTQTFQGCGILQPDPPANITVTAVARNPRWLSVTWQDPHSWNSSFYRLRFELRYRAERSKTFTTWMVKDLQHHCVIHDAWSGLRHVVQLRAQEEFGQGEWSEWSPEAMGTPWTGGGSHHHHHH

B1: IL6RPMP107A9 (VHH)
VHH: EVQLVESGGGLVQAGGSLRLSCAASGGIFSDMFMGWFRQAPGKSRESVARISPSGNTFYQDSVRGRFTISTDNAKNTVYLQMNNLKPEDTAVYYCAANVGVTGSYEYWGQGTQVTVSS
notes: family 21; also called IL6R107A9
B2: IL6RPMP107A1 (VHH)
VHH: EVQLVESGGGLVQAGGSLNLSCNASGDIGSINAMGWYRQAPGQQREWVAVITDTDSTIYPDSVKGRFAISRDGAKNTVHLRMSSLKPEDTAVYYCNAYQAGWGDYWGQGTQVTVSS
notes: also called IL6R107A1
B3: IL6RPMP108E1 (VHH)
VHH: EVQLVESGGGLVQAGGSLRLSCAASGFTFDDYDIGWFRQAPGKEREGVSGISSSDGNTYYADSVKGRFTISSDNAKNTVYLQMNSLKPEDTAVYYCAAEPPDSSWYLDGSPEFFKYWGQGTQVTVSS
notes: family 20; also called PMP108E01
B4: IL6RPMP103H9 (VHH)
VHH: EVQLVESGGGLVQPGGSLRLSCAASKSIFDINAMYWHRQAPGKQRESVASITSGGMRNYADSVKDRFTISKDNAKNTVYLQMNGLKPDDTAVYYCGLGRYEGGVWRDYWGQGTQVTVSS
notes: family 13; also called PMP103H09; IL6R103H9
B5: IL6RPMP105E1 (VHH)
VHH: EVQLVESGGGLVQAGGSLRLSCAASGSIFSIKAMGWYRQAPGKQRELVARITSGGSTYYADSVKGRFTISRDNAKNTVYLQMNSLKPEDTAVFYCNAIVTDSDYDLGNDYWGQGTQVTVSS
notes: family 7; also called PMP105E01; IL6R105E1
B6: IL6RPMP104E4 (VHH)
VHH: EVQLVESGGGTVQAGGSLKLSCAASGRTFTNYAMGWFRQAPGKEREFVAAIAYATHFADSVKGRFTISRGNAKNTVYLQMNSLKPEDTAVYYCAADLSLSKMVSKITSDMDYWGKGTLVTVSS
notes: family 8; also called PMP104E04; IL6R104E4
B7: IL6RPMP103C4 (VHH)
VHH: EVQLVESGGGLVEAGGSLRLSCAAAGRTLSSYSMAWFRQAPGKEREFVAIIRGNPSRTYHSDSVKGRFTASRDNAKNTVYLQMNRLEPEDTAVYYCAADPPPFASDYSAPQSYDYWGQGTQVTVSS
notes: family 19; also called IL6R103C4
B8: IL6RPMP107H2 (VHH)
VHH: KVQLVESGGGLVQPGGSLRLSCAASGFTFSSYAMSWVRRAPGKGLEWVSAINSDGTGSSYAPFVTGRFTASRDNAKNTLYLQMNSLKPEDTAVYYCTNSNRYDYADFSAVRGQGTQVTVSS
notes: family 27; also called IL6R107H2
B9: IL6RPMP120A5 (VHH)
VHH: EVQLVESGGGLVQAGGSLSLSCATSGRTISDDTMAWFRQAPGKEREFVAIITFNGARTHYSDSVRDRFTISRDNAKNTVYLQMNSLKSEDTAVYYCAASTKYYSSTYNYIHPAFYDIWGQGTQVTVSS
notes: family 28; also called IL6R120A5
B10: IL6RPMP103C7 (VHH)
VHH: B9 VHH with I50T, N54S, N84D
notes: family 28
B11: reference Fab (Fab, V domains shown)
VH: QVQLQESGPGLVRPSQTLSLTCTVSGYSITSDHAWSWVRQPPGRGLEWIGYISYSGITTYNPSLKSRVTMLRDTSKNQFSLRLSSVTAADTAVYYCARSLARTTAMDYWGQGSLVTVSS
VL: DIQMTQSPSSLSASVGDRVTITCRASQDISSYLNWYQQKPGKAPKLLIYYTSRLHSGVPSRFSGSGSGTDFTFTISSLQPEDIATYYCQQGNTLPYTFGQGTKVEIKR
notes: expressed in the periplasm of E. coli
B12: IL6RPMP101B12 (VHH)
VHH: EVQLVESGGGLVQPGGSLRLSCAASGVTLDYYAIGWFRQAPGKEREGVSSISSNDGSTFYADSVKGRFTISRDKAKNTVYLQMNSLKPEDTAVYYCAATYLTAQAVGVPVAYYEFDYWGQGTQVTVSS
notes: family 2; also called IL6R101B12

target: T1, human soluble IL-6R, recombinant; assay: Biacore, periplasmic extract
Experimental: Periplasmic extracts of representative family clones were also analyzed on Biacore. Dissociation curves were used to calculate koff rates. koff rates are depicted in Table C-6.

Going from B1 to B2, the koff falls from 0.01 s⁻¹ to 0.00075 s⁻¹ (13-fold).

Going from B3 to B4, the koff rises from 0.0001 s⁻¹ to 0.01 s⁻¹ (100-fold).

First: B5
Second: B6
The koff of the first is 1.8-fold lower: 0.00041 s⁻¹ for the first, 0.00075 s⁻¹ for the second.

First: B7
Second: B8
The koff of the first is 10-fold higher: 0.001 s⁻¹ for the first, 0.0001 s⁻¹ for the second.

target: cynomolgus soluble IL-6R, native, in cynomolgous plasma (cynomolgus monkey); assay: ELISA 2, cyno plasma sIL-6R, periplasmic extract, competitor IL-6

B8 showed an OD450 ratio sample/blank of 0.6.

target: T2, cyno IL-6R on CHO-K1 cells, clone …; assay: FMAT on CHO cells, competitor labelled Reference IgG
Experimental: Eleven inhibitory Nanobodies were tested in competition with labelled Reference IgG for binding to
CHO cells expressing hIL-6R or cynoIL-6R.

Compared with B9, B10 is 2.8-fold higher in IC50: 27 nM for the first, 75 nM for the second.

Compared with B11, B5 is 16-fold higher in IC50: 0.8 nM for the first, 13 nM for the second. The first is the more potent here.

For B7, the IC50 was 30 nM.

target: cynomolgus IL-6R used in Biacore (cynomolgus monkey); assay: Biacore, periplasmic extract

B1 and B2 are the same in koff: 0.01 s⁻¹ for the first, 0.01 s⁻¹ for the second.

Going from B3 to B4, the koff rises from 0.001 s⁻¹ to 0.01 s⁻¹ (10-fold).

Compared with B5, B6 is 2.2-fold lower in koff: 0.001 s⁻¹ for the first, 0.00045 s⁻¹ for the second.

In the case of B7, the koff is reported as 0.001 s⁻¹.

target: IL-6R on the surface of TF-1 cells (UniProt P08887); assay: cell-based or functional assay
Sequence (P08887 20-468 limits assumed): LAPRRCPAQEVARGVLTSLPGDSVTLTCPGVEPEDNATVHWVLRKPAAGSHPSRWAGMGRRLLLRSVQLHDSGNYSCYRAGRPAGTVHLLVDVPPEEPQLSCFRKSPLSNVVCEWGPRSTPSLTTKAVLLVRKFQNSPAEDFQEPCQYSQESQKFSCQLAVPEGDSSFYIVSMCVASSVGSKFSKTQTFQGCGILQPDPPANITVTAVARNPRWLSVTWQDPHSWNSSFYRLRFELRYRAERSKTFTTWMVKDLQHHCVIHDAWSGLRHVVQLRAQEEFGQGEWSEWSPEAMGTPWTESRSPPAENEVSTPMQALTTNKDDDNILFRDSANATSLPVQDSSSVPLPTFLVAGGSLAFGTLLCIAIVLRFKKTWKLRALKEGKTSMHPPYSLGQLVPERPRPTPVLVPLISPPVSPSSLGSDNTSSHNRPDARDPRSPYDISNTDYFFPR

Compared with B1, B2 is 86-fold lower in IC50, IL-6-dependent proliferation of TF-1 cells: 349 nM for the first, 4.05 nM for the second.

Compared with B9, B10 is 11-fold higher in IC50, IL-6-dependent proliferation of TF-1 cells: 5.59 nM for the first, 61.3 nM for the second.

Going from B3 to B4, the IC50, IL-6-dependent proliferation of TF-1 cells rises from 0.149 nM to 1470 nM (9900-fold).

Going from B5 to B7, the IC50, IL-6-dependent proliferation of TF-1 cells rises from 6.2 nM to 15.6 nM (2.5-fold).

Target: T3, hybrid IL-6R
Assay: sandwich ELISA, coated hybrid IL-6R, anti-myc-HRP detection
Experimental: The panel of purified Nanobodies was tested by standard sandwich ELISA with coated human IL-6R versus hybrid IL-6R (see Example 3). Anti-myc-horseradish peroxidase (AbD Serotec, Oxford, UK) was used as a detection antibody. Only Nanobodies with koff rates that were low enough to give a positive signal towards human IL-6R are depicted.

B6: no binding.
B12: no binding.
